± gives the uncertainty stated by the source.
Assay: protein stability index of a GFP-peptide fusion (yeast GPS) (PSI 1-4); higher = more stable; sorted into four equal gates, so the index is relative within each strain
Outline: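 Tiled yeast protein peptides of 17 residues were each joined downstream of GFP, on plasmids that also express Cherry. The pooled library was maintained in yeast, and mid-log cultures in leucine-free medium were sorted into four equal gates on the GFP/Cherry ratio. Plasmids from every gate were amplified by PCR and sequenced on Illumina, with barcodes linking reads to strains. The protein stability index of a peptide is its gate-number-weighted read frequency summed over the gates.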

IDKLEDLSRIMDWLDNW [ITC1] showed a protein stability index (doa10∆) of 2.58 ± 0.29 and a protein stability index (pdr5∆) of 2.67 ± 0.23.
ETAKMIENMTKEKVSNG [FAS2] showed a protein stability index (doa10∆) of 3.41 ± 0.3, a protein stability index (pdr5∆) of 3.28 ± 0.13 and a protein stability index (san1∆) of 3.57 ± 0.091. The protein stability index (ubr1∆) was 3.02 ± 0.11.
Work on GTENTERPPLLPILPIQ [YOR098C/NUP1] yielded a protein stability index (doa10∆) of 2.42 ± 0.17 and a protein stability index (pdr5∆) of 3.08 ± 0.17.
TKEYLVQNLRSWETKLK [CSN9] showed a protein stability index (doa10∆) of 2.96 ± 0.099, a protein stability index (pdr5∆) of 3.33 ± 0.21 and a protein stability index (san1∆) of 3.1 ± 0.092. It also gave a protein stability index (ubr1∆) of 2.93 ± 0.13.
In the case of DGVTHALYPQEARLRNL [RPB2], the protein stability index (doa10∆) is reported as 3.22 ± 0.27, the protein stability index (pdr5∆) is reported as 3.06 ± 0.22 and the protein stability index (san1∆) is reported as 3.23 ± 0.13.
Sequence KGSRQCRVCSSHTGLVR [RPS29B] has a protein stability index (doa10∆) of 2.67 ± 0.065, a protein stability index (pdr5∆) of 2.79 ± 0.051 and a protein stability index (san1∆) of 2.66 ± 0.056. The protein stability index (ubr1∆) was 2.61 ± 0.03.
Sequence ASMLGLFVFTEGWPKFQ [QCR10] has a protein stability index (doa10∆) of 1.79 ± 0.1, a protein stability index (pdr5∆) of 1.96 ± 0.099 and a protein stability index (ubr1∆) of 2.82 ± 0.2.
DRQLHEISTSKKNNLEF [RPN14] gave a protein stability index (doa10∆) of 2.96 ± 0.064, a protein stability index (pdr5∆) of 3.13 ± 0.075 and a protein stability index (san1∆) of 2.93 ± 0.071. The protein stability index (ubr1∆) was 3.17 ± 0.093.
With MAVKTGIAIGLNKGKKV [RPL36B] the protein stability index (pdr5∆) was 1.49 ± 0.2.
Sequence IRQDVNLGRAVFWEIQS [PRP8] has a protein stability index (doa10∆) of 3.04 ± 0.069, a protein stability index (pdr5∆) of 2.86 ± 0.053 and a protein stability index (san1∆) of 2.64 ± 0.06. It also gave a protein stability index (ubr1∆) of 2.86 ± 0.04.
Sequence DGKLEPSTRSNFILEVF [YJL039C/NUP192] has a protein stability index (doa10∆) of 1.63 ± 0.081, a protein stability index (pdr5∆) of 1.61 ± 0.067 and a protein stability index (san1∆) of 1.92 ± 0.14. It also gave a protein stability index (ubr1∆) of 1.33 ± 0.069.
DKGAVGPNNFIWPAEDA [MED4] gave a protein stability index (doa10∆) of 3.51 ± 0.25, a protein stability index (pdr5∆) of 3.43 ± 0.24 and a protein stability index (ubr1∆) of 3.23 ± 0.15.
Sequence STPENVPRLFDLVKPKN [SMC4] has a protein stability index (doa10∆) of 2.65 ± 0.077, a protein stability index (pdr5∆) of 3.11 ± 0.087 and a protein stability index (san1∆) of 2.65 ± 0.12. It also gave a protein stability index (ubr1∆) of 2.81 ± 0.053.
Work on TLSEPVQGELKPTVILK [FAS1] yielded a protein stability index (doa10∆) of 2.23 ± 0.054, a protein stability index (pdr5∆) of 2.22 ± 0.059 and a protein stability index (san1∆) of 2.08 ± 0.072. The protein stability index (ubr1∆) was 1.63 ± 0.038.
In the case of LQPVIPGGAASKSVPTP [SNF5], the protein stability index (doa10∆) is reported as 2.93 ± 0.13, the protein stability index (pdr5∆) is reported as 3.28 ± 0.062 and the protein stability index (san1∆) is reported as 3.12 ± 0.049. The protein stability index (ubr1∆) was 3.13 ± 0.053.
With FDDLLKPVYKGKKLTDE [RET1] the protein stability index (pdr5∆) was 2.85 ± 0.27 and the protein stability index (san1∆) was 3.32 ± 0.12.
In the case of DDDDSRKSAPVDSWDRE [SKP1], the protein stability index (doa10∆) is reported as 3.15 ± 0.047, the protein stability index (pdr5∆) is reported as 3.21 ± 0.048 and the protein stability index (san1∆) is reported as 3.21 ± 0.048. It also gave a protein stability index (ubr1∆) of 3.23 ± 0.044.
For YKEIRDVSRVAAVETLY [RPL20A], the protein stability index (doa10∆) was 1.95 ± 0.067, the protein stability index (pdr5∆) was 2.19 ± 0.081 and the protein stability index (san1∆) was 1.75 ± 0.17. For the same sequence, the protein stability index (ubr1∆) was 1.64 ± 0.069.
RQREMAEEQTKLQSQSL [YLR018C/POM34] gave a protein stability index (doa10∆) of 3.18 ± 0.045, a protein stability index (pdr5∆) of 3.28 ± 0.046 and a protein stability index (san1∆) of 3.11 ± 0.05. For the same sequence, the protein stability index (ubr1∆) was 3.1 ± 0.036.
With RKDTVSREVLRYEEFAD [RPC40] the protein stability index (doa10∆) was 3.38 ± 0.11, the protein stability index (pdr5∆) was 3.59 ± 0.15 and the protein stability index (san1∆) was 3.32 ± 0.082. The protein stability index (ubr1∆) was 3.3 ± 0.11.
In the case of TGGQTIDNGTGRTGNGN [MED6], the protein stability index (doa10∆) is reported as 3.06 ± 0.13, the protein stability index (pdr5∆) is reported as 2.82 ± 0.066 and the protein stability index (san1∆) is reported as 3.26 ± 0.079. It also gave a protein stability index (ubr1∆) of 2.72 ± 0.063.
NKSISDEITEDMFEMSD [SSN2] gave a protein stability index (doa10∆) of 3.03 ± 0.075, a protein stability index (pdr5∆) of 3.1 ± 0.075 and a protein stability index (san1∆) of 2.82 ± 0.058. It also gave a protein stability index (ubr1∆) of 3.1 ± 0.05.
In the case of KSKLFEWKSEFVVPTFG [SNM1], the protein stability index (doa10∆) is reported as 1.57 ± 0.058, the protein stability index (pdr5∆) is reported as 1.63 ± 0.067 and the protein stability index (san1∆) is reported as 2.6 ± 0.08. The protein stability index (ubr1∆) was 1.32 ± 0.067.
GKQIKSTIYNWGDNKLA [YML103C/NUP188] showed a protein stability index (doa10∆) of 2.71 ± 0.17, a protein stability index (pdr5∆) of 3.18 ± 0.15 and a protein stability index (san1∆) of 2.82 ± 0.11. It also gave a protein stability index (ubr1∆) of 2.87 ± 0.1.
Work on RVQLSGKIQENIPFWKH [SRP72] yielded a protein stability index (doa10∆) of 2.56 ± 0.071, a protein stability index (pdr5∆) of 2.44 ± 0.067 and a protein stability index (san1∆) of 2.13 ± 0.07. For the same sequence, the protein stability index (ubr1∆) was 2.4 ± 0.041.
LQNNSDSESDSDSETNH [SKP1] showed a protein stability index (doa10∆) of 2.76 ± 0.065, a protein stability index (pdr5∆) of 3.19 ± 0.074 and a protein stability index (san1∆) of 2.84 ± 0.055. It also gave a protein stability index (ubr1∆) of 2.82 ± 0.082.
QQQQQQQQQQQNNSTGS [SSN2] gave a protein stability index (doa10∆) of 2.58 ± 0.06, a protein stability index (pdr5∆) of 2.78 ± 0.049 and a protein stability index (san1∆) of 2.52 ± 0.11. For the same sequence, the protein stability index (ubr1∆) was 2.85 ± 0.065.
With VRTHMRNMIIVPEMIGS [RPS15] the protein stability index (doa10∆) was 1.25 ± 0.059, the protein stability index (pdr5∆) was 1.47 ± 0.06 and the protein stability index (san1∆) was 1.39 ± 0.12. For the same sequence, the protein stability index (ubr1∆) was 1.54 ± 0.05.
